Source: patent US20100015126A1, “Methods of Binding of Cross-Beta Structures By Chaperones” (priority 2006, published 2010)

B1: Immunoglobulin heavy constant gamma 3 (G3m marker)/Ig gamma-3 chain C region (Heavy chain disease protein, HDC) (protein)
chain: ASTKGPSVFPLAPCSRSTSGGTAALGCLVKDYFPEPVTVSWNSGALTSGVHTFPAVLQSSGLYSLSSVVTVPSSSLGTQTYTCNVNHKPSNTKVDKRVELKTPLGDTTHTCPRCPEPKSCDTPPPCPRCPEPKSCDTPPPCPRCPEPKSCDTPPPCPRCPAPELLGGPSVFLFPPKPKDTLMISRTPEVTCVVVDVSHEDPEVQFKWYVDGVEVHNAKTKPREEQYNSTFRVVSVLTVLHQDWLNGKEYKCKVSNKALPAPIEKTISKTKGQPREPQVYTLPPSREEMTKNQVSLTCLVKGFYPSDIAVEWESSGQPENNYNTTPPMLDSDGSFFLYSKLTVDKSRWQQGNIFSCSVMHEALHNRFTQKSLSLSPGK
B2: CDNA FLJ90170 fis, clone MAMMA1000370, highly similar to Ig alpha-1 chain C region/Immunoglobulin heavy constant alpha 1 (protein, UniProt P01876 1-398, looked up)
Immunoglobulin heavy constant …: ASPTSPKVFPLSLCSTQPDGNVVIACLVQGFFPQEPLSVTWSESGQGVTARNFPPSQDASGDLYTTSSQLTLPATQCLAGKSVTCHVKHYTNPSQDVTVPCPVPSTPPTPSPSTPPTPSPSCCHPRLSLHRPALEDLLLGSEANLTCTLTGLRDASGVTFTWTPSSGKSAVQGPPERDLCGCYSVSSVLPGCAEPWNHGKTFTCTAAYPESKTPLTATLSKSGNTFRPEVHLLPPPSEELALNELVTLTCLARGFSPKDVLVRWLQGSQELPREKYLTWASRQEPSQGTTTFAVTSILRVAAEDWKKGDTFSCMVGHEALPLAFTQKTIDRLADWQMPPPYVVLDLPQETLEEETPGANLWPTTITFLTLFLLSLFYSTALTVTSVRGPSGNREGPQY
B3: V1-3 protein (Fragment) (protein)
chain: QSALTQPRSVSGSPGQSVTISCTGTSSDVGGYNYVSWYQQHPGKAPKLMIYDVSKRPSGVPDRFSGSKSGNTASLTISGLQAEDEADYYCCSYAGSYTFH
B4: Complement factor H-related protein 3 precursor/Complement factor H-related 3 (FHR-3, H factor-like protein 3, DOWN16)/Complement factor H-related 3, isoform CRA_c (protein)
chain: QVKPCDFPDIKHGGLFHENMRRPYFPVAVGKYYSYYCDEHFETPSGSYWDYIHCTQNGWSPAVPCLRKCYFPYLENGYNQNYGRKFVQGNSTEVACHPGYGLPKAQTTVTCTEKGWSPTPRCIRVRTCSKSDIEIENGFISESSSIYILNKEIQYKCKPGYATADGNSSGSITCLQNGWSAQPICINSSEKCGPPPPISNGDTTSFLLKVYVPQSRVEYQCQPYYELQGSNYVTCSNGEWSEPPRCIHPCIITEENMNKNNIKLKGRSDRKYYAKTGDTIEFMCKLGYNANTSILSFQAVCREGIVEYPRCE
B5: Immunoglobulin heavy constant mu/Full-length cDNA clone CS0DD006YL02 of Neuroblastoma of Homo sapiens (protein, UniProt P01871 1-474, looked up)
Immunoglobulin heavy constant …: GSASAPTLFPLVSCENSPSDTSSVAVGCLAQDFLPDSITFSWKYKNNSDISSTRGFPSVLRGGKYAATSQVLLPSKDVMQGTDEHVVCKVQHPNGNKEKNVPLPVIAELPPKVSVFVPPRDGFFGNPRKSKLICQATGFSPRQIQVSWLREGKQVGSGVTTDQVQAEAKESGPTTYKVTSTLTIKESDWLGQSMFTCRVDHRGLTFQQNASSMCVPDQDTAIRVFAIPPSFASIFLTKSTKLTCLVTDLTTYDSVTISWTRQNGEAVKTHTNISESHPNATFSAVGEASICEDDWNSGERFTCTVTHTDLPSPLKQTISRPKGVALHRPDVYLLPPAREQLNLRESATITCLVTGFSPADVFVQWMQRGQPLSPEKYVTSAPMPEPQAPGRYFAHSILTVSEEEWNTGETYTCVVAHEALPNRVTERTVDKSTEGEVSADEEGFENLWATASTFIVLFLLSLFYSTTVTLFKVK
B6: Ig lambda chain V-III region SH (protein)
chain: SELTQDPAVSVALGQTVRITCQGDSLRSYYASWYQQKPGQAPVLVIYGKNNRPSGIPDRFSGSSSGNTASLTITGAQAEDEADYYCNSRDSS
B7: Hypothetical protein DKFZp686I04196 (Fragment)/Immunoglobulin heavy constant gamma 2 (G2m marker)/Ig gamma-2 chain C region (protein)
chain: ASTKGPSVFPLAPCSRSTSESTAALGCLVKDYFPEPVTVSWNSGALTSGVHTFPAVLQSSGLYSLSSVVTVPSSNFGTQTYTCNVDHKPSNTKVDKTVERKCCVECPPCPAPPVAGPSVFLFPPKPKDTLMISRTPEVTCVVVDVSHEDPEVQFNWYVDGVEVHNAKTKPREEQFNSTFRVVSVLTVVHQDWLNGKEYKCKVSNKGLPAPIEKTISKTKGQPREPQVYTLPPSREEMTKNQVSLTCLVKGFYPSDISVEWESNGQPENNYKTTPPMLDSDGSFFLYSKLTVDKSRWQQGNVFSCSVMHEALHNHYTQKSLSLSPGK
B8: CD5 antigen-like precursor (SP-alpha, CT-2, IgM-associated peptide)/CD5 molecule-like (protein)
chain: SPSGVRLVGGLHRCEGRVEVEQKGQWGTVCDDGWDIKDVAVLCRELGCGAASGTPSGILYEPPAEKEQKVLIQSVSCTGTEDTLAQCEQEEVYDCSHDEDAGASCENPESSFSPVPEGVRLADGPGHCKGRVEVKHQNQWYTVCQTGWSLRAAKVVCRQLGCGRAVLTQKRCNKHAYGRKPIWLSQMSCSGREATLQDCPSGPWGKNTCNHDEDTWVECEDPFDLRLVGGDNLCSGRLEVLHKGVWGSVCDDNWGEKEDQVVCKQLGCGKSLSPSFRDRKCYGPGVGRIWLDNVRCSGEEQSLEQCQHRFWGFHDCTHQEDVAVICSG
B9: Dapper homolog 1 (hDPR1) (Heptacellular carcinoma novel gene 3)/Dapper, antagonist of beta-catenin, homolog 1 (Xenopus laevis) (protein)
chain: MKPSPAGTAKELEPPAPARGEQRTAEPEGRWREKGEADTERQRTRERQEATLAGLAELEYLRQRQELLVRGALRGAGGAGAAAPRAGELLGEAAQRSRLEEKFLEENILLLRKQLNCLRRRDAGLLNQLQELDKQISDLRLDVEKTSEEHLETDSRPSSGFYELSDGASGSLSNSSNSVFSECLSSCHSSTCFCSPLEATLSLSDGCPKSADLIGLLEYKEGHCEDQASGAVCRSLSTPQFNSLDVIADVNPKYQCDLVSKNGNDVYRYPSPLHAVAVQSPMFLLCLTGNPLREEDRLGNHASDICGGSELDAVKTDSSLPSPSSLWSASHPSSSKKMDGYILSLVQKKTHPVRTNKPRTSVNADPTKGLLRNGSVCVRAPGGVSQGNSVNLKNSKQACLPSGGIPSLNNGTFSPPKQWSKESKAEQAESKRVPLPEGCPSGAASDLQSKHLPKTAKPASQEHARCSAIGTGESPKESAQLSGASPKESPSRGPAPPQENKVVQPLKKMSQKNSLQGVPPATPPLLSTAFPVEERPALDFKSEGSSQSLEEAHLVKAQFIPGQQPSVRLHRGHRNMGVVKNSSLKHRGPALQGLENGLPTVREKTRAGSKKCRFPDDLDTNKKLKKASSKGRKSGGGPEAGVPGRPAGGGHRAGSRAHGHGREAVVAKPKHKRTDYRRWKSSAEISYEEALRRARRGRRENVGLYPAPVPLPYASPYAYVASDSEYSAECESLFHSTVVDTSEDEQSNYTTNCFGDSESSVSEGEFVGESTTTSDSEESGGLIWSQFVQTLPIQTVTAPDLHNHPAKTFVKIKASHNLKKKILRFRSGSLKLMTTV

These molecules were tested against T1, BiP-Sepharose (Homo sapiens, UniProt P11021) (assay: BiP-Sepharose extraction of proteins from patient plasma, serum, synovial fluid and mass-spectrometric identification). Conditions: Sample B2: eluate of BiP-Sepharose contacted with AL amyloidosis patient I plasma.
T1 construct: The human BiP gene except the signal peptide encoding region was obtained from Geneart (Germany); linker […]; made in house; host or cells: HEK 293E cells, transient transfection, PABC674 vector; secreted into the medium
T1 sequence (P11021 19-654): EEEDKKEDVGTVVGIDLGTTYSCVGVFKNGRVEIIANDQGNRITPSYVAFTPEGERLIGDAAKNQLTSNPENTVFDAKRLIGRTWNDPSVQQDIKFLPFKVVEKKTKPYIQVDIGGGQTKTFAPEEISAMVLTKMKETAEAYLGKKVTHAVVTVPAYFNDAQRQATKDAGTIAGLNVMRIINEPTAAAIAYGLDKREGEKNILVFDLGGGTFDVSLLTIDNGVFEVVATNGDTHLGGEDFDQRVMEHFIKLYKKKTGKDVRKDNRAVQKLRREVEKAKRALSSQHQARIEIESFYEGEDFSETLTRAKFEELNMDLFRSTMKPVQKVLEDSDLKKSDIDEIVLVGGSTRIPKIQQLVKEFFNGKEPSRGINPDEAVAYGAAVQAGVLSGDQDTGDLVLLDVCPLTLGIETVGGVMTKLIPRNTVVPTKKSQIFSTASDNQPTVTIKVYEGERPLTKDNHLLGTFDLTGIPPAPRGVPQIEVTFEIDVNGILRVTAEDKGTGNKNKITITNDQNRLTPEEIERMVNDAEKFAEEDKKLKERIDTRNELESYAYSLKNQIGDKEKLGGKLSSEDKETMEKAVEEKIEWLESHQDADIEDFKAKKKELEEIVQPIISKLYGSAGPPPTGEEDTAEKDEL
Type: binding
Procedure: BiP was coated on CNBr-Sepharose (GE-Healthcare, Amersham Biosciences). Immobilization of BiP was performed essentially as described elsewhere in this application for NHS-Sepharose. CNBr-matrix was dissolved at 200 mg/ml in 1 mM HCl and treated the same as the NHS-matrix, except for an additional 5 minutes activation step in 1 mM HCl on a roller device before washing in this buffer. BiP was diluted in immobilization buffer (50 mM NaCl and 40 mM NaHCO3) to a concentration of 820 μg/ml. A total volume of 2 ml BiP solution (1640 μg BiP) was incubated with 360 mg beads. Negative control matrix was exposed to immobilization buffer, only. After overnight immobilization matrix was blocked with Tris and washed.
Six samples were incubated with the BiP-Sepharose, IgIV-Sepharose and the control-Sepharose: Normal pooled plasma, plasma of a patient I or of a patient II, with AL amyloidosis, serum of a patient III with RA (Rheumatoid Factor (RF) titer 682), control serum and synovial fluid of a patient IV with RA (RF titer 23). All samples were diluted 20× in HBS and applied to 200 μl beads in two volumes of 500 μl. One volume was incubated for 4 h at RT and supernatant was discarded after centrifugation (2 minutes at 1400 rpm). Subsequently, the second volume was applied to the same matrix and incubated overnight on a roller device at 4° C. […] To collect the eluates, the matrices were centrifuged and the two eluates were pooled for each sample.
Protein digests were desalted as described (Rappsilber et al., 2003), vacuum dried and dissolved in 2.5% formic acid.
For analysis of peptide mixtures, an Agilent 1100 HPLC system (Agilent Technologies) connected to a Thermo Finnigan LTQ-MS (Thermo Electron, Bremen, Germany) was used. Protein digests were injected on a trap column (Reprosil C18 RP (Dr Maisch, Germany), 20 mm×100 μm I.D.) at 5 μl/minute. Subsequently, the peptides were transferred with a split-reduced flow rate of 100 nL/minute solvent A (0.1 M acetic acid) on the analytical column (Reprosil C18 RP, 20 cm×50 μm I.D.). […] The column effluent was directly introduced into the ESI source of the mass spectrometer via a butt-connected nano-ESI emitter (New Objectives, Woburn, Mass.). The mass spectrometer was operated in the positive ion mode and parent ions were selected for fragmentation in data-dependent mode.
After mass spectrometric measurements, peak lists were generated using BioWorks software (Thermo Electron, Bremen, Germany). Protein identification was performed using Mascot software (www.matrixscience.com) by searching the IPIhuman database (version 3.24, downloaded from ftp://ftp.ebi.ac.uk/pub/databases/IPI/current) using the following settings: fully tryptic peptides, peptide tolerance 0.8 Da, MS/MS tolerance 0.9 Da, 1 missed cleavage allowed, carbamidomethyl (Cys) and oxidation (Met) as fixed and variable modification, respectively. The Scaffold software package (www.proteomesoftware.com) was used to parse the data and to filter peptides at a confidence level of 95%, allowing only protein identification with at least 2 peptides identified.

| Molecule | # of peptides in sample A# |
| --- | --- |
| B1 | 2 |

Same assay, conditions: Sample B3: eluate of BiP-Sepharose contacted with AL amyloidosis patient II plasma

| Molecule | # of peptides in sample A# |
| --- | --- |
| B2 | 2 |
| B3 | 2 |
| B4 | 1 |
| B1 | 2 |
| B5 | 4 |

Same assay, conditions: Sample B4: eluate of BiP-Sepharose contacted with RA patient III serum

| Molecule | # of peptides in sample A# |
| --- | --- |
| B6 | 2 |
| B7 | 14 |
| B8 | 1 |
| B2 | 17 |
| B9 | 2 |
| B3 | 1 |
| B5 | 10 |
